Test results from a protein production outcome set (Wang et al. 2014).

experiment: label from the status in PepcDB records

Sequence	protein production
MRKCLLSVAMIVKDEEHNIRRALESIKDVVDEIVVVDTGSTDRTPEIVREYTDKLYFHEWKNDFSEARNFSLKFPTCEWVLILDADEEASEEFRQNIRSFLESLPEDVNTVYLPTVSYLDWDFKRTEIASTPRIFRNGTVYYKNIVHNQAVYKPKVVHAPFVIYHYGYIWTRKLKKNKYERTATLIREQLKTVKNPIEKIYYLIQLYKTEKTGGRKHEENRIAWETLQEIMKVGKIPPIGLEFLYIFGMELILNGFLEKGEELIDTAIRVFPENPDPYFAKLAIYERRKDWENLYQWGKKFLDVLNKALSQAEKYEFTITTIKEIGTAHLLMCHACIKLKKWNEAYEHLLKAIENNIDESKFTLTLQIVSEIDESENFQKVLKLVEKIAEHSENLFFDEIVEKIAEFEIEASEELLNKLPVSRKISKFILKRLVEKKDFLFEYLTGGDINSFVEKTGIPGLLFIFDLLKNRETEGRLIRILSKIEGDEKPNGIVQALIGDLYLKLGNFSEAISRYRKALELAPEIGNFIKPVIEDLKTRLDPDIEGVYEELYRYFSGYREFPFNILEFTKEDAEKLYLISDHPLAIYTSAVAVFPKSKEKARALLERIKDVSKLSFYYYRLAKTWEEENPSKAFELHIKAVEENENLGDIALGRYKYDGLYPNQTFPFMKKEDEIVWAGNITEKFSGLGVIHPVRAWKRKENLYYALPHPTDEALKLYKEREKEILKEPPFKVKEEHMIGVLLESDIRDLRIKGEASGLESILKDLEIELKEDSKNLLVVSGVEETLDLSKIAEDAERVLLFFFVPDLRDRNNSVWYYPAFRVLRTTHQMKKTLEDLRFSVVKVKALDKNLRFIEALRRL	failed
MRKDDVVIVTCAITGAIHTPSMSPYLPVTPDQIVEEAVKAAEAGAGMVHIHARDPKDGRPTTDVEVFRYICREIKKQSDVVINVTTGGGGTLGIPVEERAKVVPALKPEIATFNMGSMNFAIHPLLKKYKEFKYDWEPEYLEMTRDIVFRNTFKDLEALSRIFKENDTKPELECYDIGQIYNTAFMFHEGYLEPPLRLQFIHGILGGIGTAVEDVLFMKQTADRLIGRENYTWSLVGAGRFQMPLGTLAVIMGGDVRVGLEDSLYIERGKLAKSNAEQVEKMVRIVKELGKRPATPDEVREILGLKGKERVNF	not failed
MRKDTEEVQKSSGKTRKSYVKVKKKRRKSTKQKGPEPKKLDFVKDSWQKGSLEIKKLDFIGDRWQTVSLEPKMLGFVEDPWRKGSLEPKMLDFVEDPWQKGSLEPKMLDIVEDSWQKDSFEAMKLDFAEYNWISIDNRRVSADSKRSSVDSKRSSVDSKRSSVDSKRGSIDSRKFSVDSKRDPVDNKRDSVDSKRFSVDSKRFSVDSRRVSISSKRSSIDSKRSSVDSRKSSGGTLLDFSEDRRSSGEDRDISSLARVRHSRVPWATLMRALGRFKLYLPHIRRYYNLSSRDPLALDKDFLLPREKHLKATVQKSWGNQQPLSKIPYKTLTGHDQTVSSCHFCMDDTRLLSSSYDCTVKLWDAEDGTVICDFEPRPKAPVLECSITADNRRIVASSYDKTVRAWDVETGQLLWKVRHDTFVVCCKFSPNGKYVLSALDVNRGIYLMDPENITSVIHMKAQHQRSITSCCFDPDSQKVASVSMDKSIKIWDVTSRATLFTIQEAHTNAISDCCFTFSGHFLCTSSWDRTIKIWNVHTGEFRNQGACVTLMKGHEGCVSSCCIARDSSFLISGGFDKTVAIWDVGGGYRKLSLKGHEDWVTDVAISNDKKWILSASKDNSMRLWNIEEIDKIPLVSENKRAMGLKVRQCRNCDQLFSVLESDVYSQLSNTCLFCRREKKSLSSSSSSLSLSSLERLCI	failed
MRKFTILLLLLWLPSFVSSLTEFDSVMDLRKQLIVLTGWLGFAYMGAAIVLSARFKWTERLVKGLDKAYGLHKKLGISAFIALLLHWLVIKAAHWAVQLGWLVRPTHAGKERVITGVDWISLAEKVGDISFKVFILFTIISLVERISYKKFKGIHKIGGALMLAGVFHTLFLIKWDLSLIPMNIAIILISAISVWCAILSLTGSIGKKNKIGGQVVLVDKFKDDSEFTVVARLQIKLESKLRYKEGQFAYINFHDGEAPHPFSILNYNEKTRLVEFGIKDLGDYTHQLVNQIAVGKKATVEGGYGYFQVPSDMNQVWVGAGIGIVPLLSRLYWLQKSTDKTTKRIEKIHLFYCVNNEKEAFFSTEIKAILRKMDFIELHLIESDKGYRLTSEYILNKIDNESFSVSFCGPEGFGMSLKQGLMANGLPEASFHKEIFKMR	failed
MRKHSDCMNFCAVDATKGICRLSKQMINLDDAACPEIKVMPKCKNCKNFVEANDEGIGKCVGLEKEDWVYSTLNAITCEGHVFNE	failed
MRKILVVGAGQSGLQLALGLQSHGYEVTLMSNRTADEIRSGRVMSTQCMFDTALGHERDLQLNFWESQAPKIEGLGVSVAAPGSFDPGPSQRAIDWVGKLDGYAQSVDQRVKMAGWMETFAQRGGQLVIHGAAVSDLDYFSRAYDLVLVSAGKGELVSMFGRDASRSPYSEPQRALAVAYVHGLGPRPEHPDYDAVRCNLVPGVGELFVMPTLTTSGRADILFWEGIPGGPLDVFKGVNDPGEHLSLTLELMERFTPWEYARATKVELTDGNGTLAGRYAPTVRNPVGRLPGGGLVLGVADVVVANDPITGQGSNSASKCAAAYLASIVEHGEKEFDETWMRATFDRYWDTAQHVTKWTNAMLGVPPEHVLNLIGAAGALQPVANRFANGFDNPADFENFFYEPEKTEAYLASVAGS	failed
MRKKKDGQNLPDFRKNPPKLDKKAYEKELKRLQAELVDLQQWVVETGARVVIVMEGRDAAGKGSAIKRITQYLNPRSARIEALPTPNSREKGQWYFQRYIEKLPTAGEIVIFDRSWYNRAGVERVMGFCTSQEYRRFLHQAPIFERLLVEDGIHLRKYWFSVSDEEQIERFEDRLSDPLRRWKLSPMDLQSITRWEDYSRAKDEMFIHTDIPSAPWYTVESEDKKRSRINVISHLLSTIPYEKIDRPLPEIPHRPDSESDYVRPPRDEFRYVPDVAAHLEEERIKKEEKAKKAKKPAKAAGKNSDKQKSSGGKGKKKSKK	failed
MRKKQKLPFDKLAIALMSTSILLNAQSDIKANTVTEDTPAAEQAVETPQPTAVSEEVPSSKETKTPQTPDNAEETVADKANDLALQAPAKTADTPATSKATIRDLNDPSQVKTLQEKAGKGAGTVVAVIDAGFDKNHEAWRLTDKTKARYQSKEDLEKAKKEHGITYGEWVNDKVAYYHDYSKDGKTAVDQEHGTHVSGILSGNAPSETKEPYRLEGAMPEAQLLLMRVEIVNGLADYARNYAQAIRDAVNLGAKVINMSFGNAALAYANLPDETKKAFDYAKSKGVSIVTSAGNDSSFGGKTRLPLADHPDYGVVGTPAAADSTLTVASYSPDKQLTETATVKTADQQDKEMPVLSTNRFEPNKAYDYAYANRGMKEDDFKDVKGKIALIERGDIDFKDKIANAKKAGAVGVLIYDNQDKGFPIELPNVDQMPAAFISRKDGLLLKENPQKTITFNATPKVLPTASGTKLSRFSSWGLTADGNIKPDIAAPGQDILSSVANNKYAKLSGTSMSAPLVAGIMGLLQKQYEIQYPDMTPSERLDLAKKVLMSSATALYDEDEKAYFSPRQQGAGAVDAKKASAATMYVTDKDNTSSKVHLNNVSDKFEVTVTVHNKSDKPQELYYQATVQTDKVDGKHFALAPKALYETSWQKITIPANSSKQVTVPIDASRFSKDLLAQMKNGYFLEGFVRFKQDPKKEELMSIPYIGFRGDFGNLSALEKPIYDSKDGSSYYHEANSDAKDQLDGDGLQFYALKNNFTALTTESNPWTIIKAVKEGVENIEDIESSEITETIFAGTFAKQDDDSHYYIHRHANGKPYAAISPNGDGNRDYVQFQGTFLRNAKNLVAEVLDKEGNVVWTSEVTEQVVKNYNNDLASTLGSTRFEKTRWDGKDKDGKVVANGTYTYRVRYTPISSGAKEQHTDFDVIVDNTTLEVATSATFSTEDRRLTLASKPKTSQPIYRERIAYTYMDEDLPTTEYISPNEDGTFTLPEEAETMEGATVPLKMSDFTYVVEDMAGNITYTPVTKLLEGHSNKPEQDGSDQAPDKKPEAKPEQDGSGQTPDKKPETKPEKDSSGQTPGKTPQKGQPSRTLEKRSSKRALATKASARDQLPTTNDKDTNRLHLLKLVMTTFFFGLVAHIFKTKRQKETKK	failed
MRKSVSRASSIITGLLVMSIGLNSTEYLSIYKLILFNKKTCMKLKTHFVFSIGLLTLASSFFGFSLIISAIISVLGNTLIDRLGHKEISTRYGKIPVRTPLTHTLPRSVFWGLISSMPVIIVLGLAYGMLNTKILTALIDGILVGPSHMLLDVFTENGIYVKRNGKWKRVALAHFSYDSSLINGLAIVLGIIMIFAAMELHH	failed
MRKTKTEALKTKEHLMLAALETFYRKGIARTSLNEIAQAAGVTRGALYWHFKNKEDLFDALFQRICDDIENCIAQDAEDAEGGSWAVFRHTLLHFFERLQSNDIYYKFHNILFLKCEHTEQNAAVIAIARKHQAIWREKITAVLTEAVENQDLADDLDKETAVIFIKSTLDGLIWRWFSSCERFDLGKTAPRIIGIMMDNLENHPDLRRK	not failed
MRKVTAAVMASTLAFSFLSHAAEVVTSDNWHPGDGATQRSAQNHMFDGISLTEHQRQQMRDLMQQARHEQPPVNVSEMETMHRLVTAEKFDESAVRAQAEKMAQEQVARQVEMARVRNQMYRLLTPEQQAVLNEKHQQRMEQLRDVAQWQKSSSLKLLSSSNSRSQLEHHHHHH	failed
MRLALFDLDNTLLGGDSDHAWGDYLYQRGILDAATYKSRNDEFYQDYLAGTLNMTDYLNFTLEILGNTDMAQLQEWHREFMRDCIEPIMLPKALELIAKHREAGDKLVVITATNRFVTAPIVARLGIETLLATECEMVDGRYTGRTTGVPCFREGKVTRLNQWLEDNAFSLEDSYFYSDSMNDLPLLEQVANPVAVDPDARLRAEAEQRGWPVITLRS	failed
MRLDHLRLQNFRCYEDAHFDFQPGFNLVVGVNGSGKTSLLLGVAECLIPYGNAMGQGQEILSKEDVRFVIDRHEGRSRFERKFPVFIRADGDIFDLPNWRAVRLLEPWEGGVDPSSLSHLSAVLARNNAGEQIDFPVLAFYRANRRWSSARISAEFAAQQRTSRFDGYANWFDAVADLRDFESWLIARTLERLQDRLDSTPTVEREDELEWVNRAIRLAIPDAHDLRYDLRLQSLLVDMGEGNAVPFHELSDGQRSLIALIADIARRMCVLNPHIGKDVLANTGGIVIIDELDIHLHPAWQRNIAPTLKKAFPKVQFIATSHSPQVIGSLQPGEVILLKNGDSSHPRATYGLDSSTILEEVMGVPQREPEIEVLLDELFSTLENNELEKARLQLDALKKKAPDLPEFAGAEALLKRKELIGRLEHHHHHH	not failed
MRLEKGMPLKRQIRLKTAIILPFVLTFLFMILAMAAVQTYRYEQTVKELSSKKLSYLTDSISQRLSDFLNRPFFANQMIAYNVGFHHLYQLNDVSRIEDFIRAAANPIGNNIQQIDVVGFGGVNGEYVGLRRDAPEQYSLMLKDARTDDKLVIYQTATKNDQLRTVIDNYDPRVRPWFAPVAQKPSPQWSSVYTNMDEKQEITLSALSPVFQDKRFIGVMVSDVKLNTFNQFLSELKQRMNADVYVMDKQHRLIAHSGEGSVVSWGTPLSPKGERLFASENRNPIIRSSAEQLDLQGLNVGTFTTYVNQQRYFNQASAFTDQYGLTWYISVSIAEGDLLGSLPENQKTSWAIGLLVSLVGLGLGLMALNRVANPIISTASAARQLANGDWTASMPKPGKIYETSLLVQAFIEMTNSLKASFKALRSQLVYDSLTQLLSREGLVEHCHQIPQLNGGLILIGIDKFRDINDSLGHHQADQLLVAIAQRLKVTFPEPALIARIGGDEFAIYLPDVNQQDDLKSVATDILKLFASPFSMPSDNIAVNVSIGIVYLEEPNMTVWLRNGSIALSNAKAEHTHISFYSPEMANASRKRMLMVTQIKLALDNQEFVPFYQPIVDLNSGEVLGAEALARWISPEFGLIPPMDFIPIAEESGLINAIGEQILRQACADTVRGIAENKWPSTFHMHVNLSVNQLSHPDFIAQLHSVLDESGLQPTNLTLEITESRIVDNDPVILHNMLELKKARIHIAIDDFGTGYSSLAYLHKLPFDCLKIDREFVSQLNAYNIENSVVAAIVNMTRGFKVELVAEGIETQEQVDLLNQLGCPRGQGFLFSKPMAYQDWPTDLVNMKQS	failed
